Results: PMC11602157, “ZNF512B binds RBBP4 via a variant NuRD interaction motif and aggregates chromatin in a NuRD complex-independent manner” (Nucleic Acids Research, 2024)

Biological target: RBBP4, recombinant, for fluorescence polarization (human), Q09028
Assay: fluorescence polarisation; competitive: unlabeled peptide (1.0–0.0 mM series) added to preformed complex of 1 nM FAM tracer and 40 nM RBBP4; 50 mM Tris-HCl pH 7.5, 150 mM NaCl, 0.02% Triton X-100; read after 60 min; ki from IC50

RBBP4, recombinant, for fluorescence polarization (human), Q09028, sequence (Q09028 whole entry): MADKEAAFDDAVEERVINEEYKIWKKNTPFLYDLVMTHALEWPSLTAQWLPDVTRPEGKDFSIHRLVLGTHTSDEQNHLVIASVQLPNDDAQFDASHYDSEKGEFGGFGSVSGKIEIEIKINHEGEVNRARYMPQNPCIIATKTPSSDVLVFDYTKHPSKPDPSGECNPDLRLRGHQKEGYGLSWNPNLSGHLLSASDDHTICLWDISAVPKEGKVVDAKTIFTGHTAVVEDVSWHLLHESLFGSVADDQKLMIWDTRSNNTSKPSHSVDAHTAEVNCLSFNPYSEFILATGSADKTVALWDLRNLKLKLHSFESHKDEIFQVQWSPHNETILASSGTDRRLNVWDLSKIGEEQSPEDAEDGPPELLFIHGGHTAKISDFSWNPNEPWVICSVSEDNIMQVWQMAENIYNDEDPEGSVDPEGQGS

Ki: 19 nM
B1: ZNF512B NIM peptide (unlabeled ZNF512B iNIM) (peptide)
chain: KHRRKQKTPKKF
modifications: not checked
